{"source": "FireProtDB (doi:10.1021/bi962939w)", "parents": {"B1": {"name": "Interleukin-6, P08505 (parent)", "chain": "MKFLSARDFHPVAFLGLMLVTTTAFPTSQVRRGDFTEDTTPNRPVYTTSQVGGLITHVLWEIVEMRKELCNGNSDCMNNDDALAENNLKLPEIQRNDGCYQTGYNQEICLLKISSGLLEYHSYLEYMKNNLKDNKKDKARVLQRDTETLIHIFNQEVKDLHKIVLPTPISNALLTDKLESQKEWLRTKTIQFILKSLEEFLKVTLRSTRQT"}}, "variants_of": "B1", "conditions": "Mus musculus, 25 °C, CD, structure 2L3Y, whole UniProt chain shown", "key": {"[1]": {"conditions": "pH 4, Urea, Sodium acetate 10 mM"}}}
{"variant": "W60A", "values": [{"measurement": "ddG of mutation (higher = less stable)", "setting": "[1]", "result": 2, "unit": "kcal/mol"}, {"measurement": "denaturant m value", "setting": "[1]", "result": 2.5, "unit": "kcal/mol/M"}, {"measurement": "denaturant midpoint (higher = more stable)", "setting": "[1]", "result": 3.5, "unit": "M"}, {"measurement": "unfolding free energy", "setting": "[1]", "result": 8.8, "unit": "kcal/mol"}, {"measurement": "ddG of mutation (higher = less stable)", "setting": "pH 7.4, GdnHCl, Tris-HCl 10 mM", "result": -3.1, "unit": "kcal/mol"}, {"measurement": "denaturant m value", "setting": "pH 7.4, GdnHCl, Tris-HCl 10 mM", "result": 2.5, "unit": "kcal/mol/M"}, {"measurement": "denaturant midpoint (higher = more stable)", "setting": "pH 7.4, GdnHCl, Tris-HCl 10 mM", "result": 4.6, "unit": "M"}, {"measurement": "unfolding free energy", "setting": "pH 7.4, GdnHCl, Tris-HCl 10 mM", "result": 5, "unit": "kcal/mol"}, {"measurement": "ddG of mutation (higher = less stable)", "setting": "pH 7.4, Urea, Tris-HCl 10 mM", "result": 1.7, "unit": "kcal/mol"}, {"measurement": "denaturant m value", "setting": "pH 7.4, Urea, Tris-HCl 10 mM", "result": 1, "unit": "kcal/mol/M"}, {"measurement": "denaturant midpoint (higher = more stable)", "setting": "pH 7.4, Urea, Tris-HCl 10 mM", "result": 4.6, "unit": "M"}, {"measurement": "unfolding free energy", "setting": "pH 7.4, Urea, Tris-HCl 10 mM", "result": 4, "unit": "kcal/mol"}]}
{"variant": "H57A", "values": [{"measurement": "ddG of mutation (higher = less stable)", "setting": "[1]", "result": 3.9, "unit": "kcal/mol"}, {"measurement": "denaturant m value", "setting": "[1]", "result": 1.9, "unit": "kcal/mol/M"}, {"measurement": "denaturant midpoint (higher = more stable)", "setting": "[1]", "result": 3.58, "unit": "M"}, {"measurement": "unfolding free energy", "setting": "[1]", "result": 6.9, "unit": "kcal/mol"}, {"measurement": "ddG of mutation (higher = less stable)", "setting": "pH 7.4, GdnHCl, Tris-HCl 10 mM", "result": 0.3, "unit": "kcal/mol"}, {"measurement": "denaturant m value", "setting": "pH 7.4, GdnHCl, Tris-HCl 10 mM", "result": 0.8, "unit": "kcal/mol/M"}, {"measurement": "denaturant midpoint (higher = more stable)", "setting": "pH 7.4, GdnHCl, Tris-HCl 10 mM", "result": 2, "unit": "M"}, {"measurement": "unfolding free energy", "setting": "pH 7.4, GdnHCl, Tris-HCl 10 mM", "result": 1.6, "unit": "kcal/mol"}]}
{"variant": "H57A W60A", "values": [{"measurement": "ddG of mutation (higher = less stable)", "setting": "[1]", "result": 2.2, "unit": "kcal/mol"}, {"measurement": "denaturant m value", "setting": "[1]", "result": 2.3, "unit": "kcal/mol/M"}, {"measurement": "denaturant midpoint (higher = more stable)", "setting": "[1]", "result": 3.8, "unit": "M"}, {"measurement": "unfolding free energy", "setting": "[1]", "result": 8.6, "unit": "kcal/mol"}, {"measurement": "ddG of mutation (higher = less stable)", "setting": "pH 7.4, GdnHCl, Tris-HCl 10 mM", "result": -4.1, "unit": "kcal/mol"}, {"measurement": "denaturant m value", "setting": "pH 7.4, GdnHCl, Tris-HCl 10 mM", "result": 3, "unit": "kcal/mol/M"}, {"measurement": "denaturant midpoint (higher = more stable)", "setting": "pH 7.4, GdnHCl, Tris-HCl 10 mM", "result": 2, "unit": "M"}, {"measurement": "unfolding free energy", "setting": "pH 7.4, GdnHCl, Tris-HCl 10 mM", "result": 6, "unit": "kcal/mol"}, {"measurement": "ddG of mutation (higher = less stable)", "setting": "pH 7.4, Urea, Tris-HCl 10 mM", "result": -1.8, "unit": "kcal/mol"}, {"measurement": "denaturant m value", "setting": "pH 7.4, Urea, Tris-HCl 10 mM", "result": 1.5, "unit": "kcal/mol/M"}, {"measurement": "denaturant midpoint (higher = more stable)", "setting": "pH 7.4, Urea, Tris-HCl 10 mM", "result": 4.9, "unit": "M"}, {"measurement": "unfolding free energy", "setting": "pH 7.4, Urea, Tris-HCl 10 mM", "result": 7.5, "unit": "kcal/mol"}]}
